The text below walks through data of US20250049970A1, “DLL3 TARGETING PEPTIDES AND CONSTRUCTS THEREOF” (MARIANA ONCOLOGY INC., priority 2023, published 2025).

In general, Kd refers to the free concentration of one partner at which half of the binding sites on the other are occupied at equilibrium, for simple one-to-one binding.

Bridges are numbered along the chain shown (N, C = ends).

The target in the experiment is T1, DLL3 (target ligand immobilized on a SA sensor chip via streptavidin capture) (Homo sapiens (Human), UniProt Q9NYJ7 27-492, limits assumed).
T1 sequence: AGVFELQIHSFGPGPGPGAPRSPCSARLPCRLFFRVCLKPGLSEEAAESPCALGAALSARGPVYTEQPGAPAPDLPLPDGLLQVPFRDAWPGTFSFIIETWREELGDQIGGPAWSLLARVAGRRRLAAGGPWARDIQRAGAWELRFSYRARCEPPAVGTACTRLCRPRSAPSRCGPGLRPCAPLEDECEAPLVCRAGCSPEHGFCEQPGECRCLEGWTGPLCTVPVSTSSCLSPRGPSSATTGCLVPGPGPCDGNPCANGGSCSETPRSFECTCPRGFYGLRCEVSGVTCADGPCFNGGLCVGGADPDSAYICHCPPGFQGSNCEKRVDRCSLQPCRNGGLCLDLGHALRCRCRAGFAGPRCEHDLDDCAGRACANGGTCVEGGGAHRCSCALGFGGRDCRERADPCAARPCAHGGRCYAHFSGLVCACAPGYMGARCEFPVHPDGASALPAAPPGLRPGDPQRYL
Nature of the experiment: SPR, Biacore S200, target ligand on SA chip, 25 C, 1:1 fit. The protocol: Target ligand was immobilized on a SA sensor chip via streptavidin capture. A reference surface was set up for nonspecific binding and refractive index changes. For analysis of the kinetics of interactions, varying concentrations of peptides were injected at a flow rate of 50 μL/minute using running buffer containing 20 mM phosphate buffer with 2.7 mM KCl, 137 mM NaCl and 0.05% Surfactant P20. Sensorgram curves were fitted with 1:1 binding model, and affinity and kinetic parameters were obtained using either Biacore S200 evaluation software 1.1.1 or Biacore Insight evaluation 4.0.

B1: SEQ ID NO 71 (peptide)
peptide: Ac-MWHICQEWATCWP-NH2
modifications: disulfide 5-11
SMILES: CC[C@H](C)[C@H](NC(=O)[C@H](Cc1c[nH]cn1)NC(=O)[C@H](Cc1c[nH]c2ccccc12)NC(=O)[C@H](CCSC)NC(C)=O)C(=O)N[C@H]1CSSC[C@@H](C(=O)N[C@@H](Cc2c[nH]c3ccccc23)C(=O)N2CCC[C@H]2C(N)=O)NC(=O)[C@H]([C@@H](C)O)NC(=O)[C@H](C)NC(=O)[C@H](Cc2c[nH]c3ccccc23)NC(=O)[C@H](CCC(=O)O)NC(=O)[C@H](CCC(N)=O)NC1=O
For B1, the Kd turned out to be 47 nM.

B2: SEQ ID NO 86 (peptide)
peptide: Ac-AWTICNNWHDCWP-NH2
modifications: disulfide 5-11
SMILES: CC[C@H](C)[C@H](NC(=O)[C@@H](NC(=O)[C@H](Cc1c[nH]c2ccccc12)NC(=O)[C@H](C)NC(C)=O)[C@@H](C)O)C(=O)N[C@H]1CSSC[C@@H](C(=O)N[C@@H](Cc2c[nH]c3ccccc23)C(=O)N2CCC[C@H]2C(N)=O)NC(=O)[C@H](CC(=O)O)NC(=O)[C@H](Cc2c[nH]cn2)NC(=O)[C@H](Cc2c[nH]c3ccccc23)NC(=O)[C@H](CC(N)=O)NC(=O)[C@H](CC(N)=O)NC1=O
In turn, B2 gave a Kd of 7.6 nM. Compared with the last molecule, the Kd is about 6.2-fold lower.

B3: SEQ ID NO 89 (peptide)
peptide: Ac-MWTICANWHDCWP-NH2
modifications: disulfide 5-11
SMILES: CC[C@H](C)[C@H](NC(=O)[C@@H](NC(=O)[C@H](Cc1c[nH]c2ccccc12)NC(=O)[C@H](CCSC)NC(C)=O)[C@@H](C)O)C(=O)N[C@H]1CSSC[C@@H](C(=O)N[C@@H](Cc2c[nH]c3ccccc23)C(=O)N2CCC[C@H]2C(N)=O)NC(=O)[C@H](CC(=O)O)NC(=O)[C@H](Cc2c[nH]cn2)NC(=O)[C@H](Cc2c[nH]c3ccccc23)NC(=O)[C@H](CC(N)=O)NC(=O)[C@H](C)NC1=O
In turn, B3 had a Kd of 8.1 nM. The Kd values of the last two molecules are within 1.5-fold of each other.

B4: SEQ ID NO 88 (peptide)
peptide: Ac-MWTACNNWHDCWP-NH2
modifications: disulfide 5-11
SMILES: CSCC[C@H](NC(C)=O)C(=O)N[C@@H](Cc1c[nH]c2ccccc12)C(=O)N[C@H](C(=O)N[C@@H](C)C(=O)N[C@H]1CSSC[C@@H](C(=O)N[C@@H](Cc2c[nH]c3ccccc23)C(=O)N2CCC[C@H]2C(N)=O)NC(=O)[C@H](CC(=O)O)NC(=O)[C@H](Cc2c[nH]cn2)NC(=O)[C@H](Cc2c[nH]c3ccccc23)NC(=O)[C@H](CC(N)=O)NC(=O)[C@H](CC(N)=O)NC1=O)[C@@H](C)O
Molecule B4 came in with a Kd of 86 nM.

B5: SEQ ID NO 87 (peptide)
peptide: Ac-MWAICNNWHDCWP-NH2
modifications: disulfide 5-11
SMILES: CC[C@H](C)[C@H](NC(=O)[C@H](C)NC(=O)[C@H](Cc1c[nH]c2ccccc12)NC(=O)[C@H](CCSC)NC(C)=O)C(=O)N[C@H]1CSSC[C@@H](C(=O)N[C@@H](Cc2c[nH]c3ccccc23)C(=O)N2CCC[C@H]2C(N)=O)NC(=O)[C@H](CC(=O)O)NC(=O)[C@H](Cc2c[nH]cn2)NC(=O)[C@H](Cc2c[nH]c3ccccc23)NC(=O)[C@H](CC(N)=O)NC(=O)[C@H](CC(N)=O)NC1=O
For the molecule B5, binding was put at a Kd of 53 nM.

B6: SEQ ID NO 75 (peptide)
peptide: Ac-MWVLCEWHECWPG-NH2
modifications: disulfide 5-10
SMILES: CSCC[C@H](NC(C)=O)C(=O)N[C@@H](Cc1c[nH]c2ccccc12)C(=O)N[C@H](C(=O)N[C@@H](CC(C)C)C(=O)N[C@H]1CSSC[C@@H](C(=O)N[C@@H](Cc2c[nH]c3ccccc23)C(=O)N2CCC[C@H]2C(=O)NCC(N)=O)NC(=O)[C@H](CCC(=O)O)NC(=O)[C@H](Cc2c[nH]cn2)NC(=O)[C@H](Cc2c[nH]c3ccccc23)NC(=O)[C@H](CCC(=O)O)NC1=O)C(C)C
Take B6: the Kd amounted to 57 nM.

B7: SEQ ID NO 73 (peptide)
peptide: Ac-MWTLCDNWQTCWP-NH2
modifications: disulfide 5-11
SMILES: CSCC[C@H](NC(C)=O)C(=O)N[C@@H](Cc1c[nH]c2ccccc12)C(=O)N[C@H](C(=O)N[C@@H](CC(C)C)C(=O)N[C@H]1CSSC[C@@H](C(=O)N[C@@H](Cc2c[nH]c3ccccc23)C(=O)N2CCC[C@H]2C(N)=O)NC(=O)[C@H]([C@@H](C)O)NC(=O)[C@H](CCC(N)=O)NC(=O)[C@H](Cc2c[nH]c3ccccc23)NC(=O)[C@H](CC(N)=O)NC(=O)[C@H](CC(=O)O)NC1=O)[C@@H](C)O
Regarding B7, the Kd is 42 nM.

B8: SEQ ID NO 74 (peptide)
peptide: Ac-MWQLCEWNNCWPV-NH2
modifications: disulfide 5-10
SMILES: CSCC[C@H](NC(C)=O)C(=O)N[C@@H](Cc1c[nH]c2ccccc12)C(=O)N[C@@H](CCC(N)=O)C(=O)N[C@@H](CC(C)C)C(=O)N[C@H]1CSSC[C@@H](C(=O)N[C@@H](Cc2c[nH]c3ccccc23)C(=O)N2CCC[C@H]2C(=O)N[C@H](C(N)=O)C(C)C)NC(=O)[C@H](CC(N)=O)NC(=O)[C@H](CC(N)=O)NC(=O)[C@H](Cc2c[nH]c3ccccc23)NC(=O)[C@H](CCC(=O)O)NC1=O
B8 displayed a Kd of 110 nM.

B9: SEQ ID NO 70 (peptide)
peptide: Ac-MWKICSDWQNCWP-NH2
modifications: disulfide 5-11
SMILES: CC[C@H](C)[C@H](NC(=O)[C@H](CCCCN)NC(=O)[C@H](Cc1c[nH]c2ccccc12)NC(=O)[C@H](CCSC)NC(C)=O)C(=O)N[C@H]1CSSC[C@@H](C(=O)N[C@@H](Cc2c[nH]c3ccccc23)C(=O)N2CCC[C@H]2C(N)=O)NC(=O)[C@H](CC(N)=O)NC(=O)[C@H](CCC(N)=O)NC(=O)[C@H](Cc2c[nH]c3ccccc23)NC(=O)[C@H](CC(=O)O)NC(=O)[C@H](CO)NC1=O
Take B9: the Kd was determined as 340 nM.

B10: SEQ ID NO 68 (peptide)
peptide: Ac-WTICADWAQCWP-NH2
modifications: disulfide 4-10
SMILES: CC[C@H](C)[C@H](NC(=O)[C@@H](NC(=O)[C@H](Cc1c[nH]c2ccccc12)NC(C)=O)[C@@H](C)O)C(=O)N[C@H]1CSSC[C@@H](C(=O)N[C@@H](Cc2c[nH]c3ccccc23)C(=O)N2CCC[C@H]2C(N)=O)NC(=O)[C@H](CCC(N)=O)NC(=O)[C@H](C)NC(=O)[C@H](Cc2c[nH]c3ccccc23)NC(=O)[C@H](CC(=O)O)NC(=O)[C@H](C)NC1=O
The molecule B10 registered a Kd of 6.1 nM.

B11: SEQ ID NO 72 (peptide)
peptide: Ac-MWTLCDTWDTCFP-NH2
modifications: disulfide 5-11
SMILES: CSCC[C@H](NC(C)=O)C(=O)N[C@@H](Cc1c[nH]c2ccccc12)C(=O)N[C@H](C(=O)N[C@@H](CC(C)C)C(=O)N[C@H]1CSSC[C@@H](C(=O)N[C@@H](Cc2ccccc2)C(=O)N2CCC[C@H]2C(N)=O)NC(=O)[C@H]([C@@H](C)O)NC(=O)[C@H](CC(=O)O)NC(=O)[C@H](Cc2c[nH]c3ccccc23)NC(=O)[C@H]([C@@H](C)O)NC(=O)[C@H](CC(=O)O)NC1=O)[C@@H](C)O
B11 showed a Kd of 24 nM.
